Laboratory results reported in article PMC3824023.

Target: microtubules polymerised from bovine brain tubulin (bovine) (UniProt Q6B856)
Sequence of UniProt Q6B856 (Q6B856 whole entry, looked up): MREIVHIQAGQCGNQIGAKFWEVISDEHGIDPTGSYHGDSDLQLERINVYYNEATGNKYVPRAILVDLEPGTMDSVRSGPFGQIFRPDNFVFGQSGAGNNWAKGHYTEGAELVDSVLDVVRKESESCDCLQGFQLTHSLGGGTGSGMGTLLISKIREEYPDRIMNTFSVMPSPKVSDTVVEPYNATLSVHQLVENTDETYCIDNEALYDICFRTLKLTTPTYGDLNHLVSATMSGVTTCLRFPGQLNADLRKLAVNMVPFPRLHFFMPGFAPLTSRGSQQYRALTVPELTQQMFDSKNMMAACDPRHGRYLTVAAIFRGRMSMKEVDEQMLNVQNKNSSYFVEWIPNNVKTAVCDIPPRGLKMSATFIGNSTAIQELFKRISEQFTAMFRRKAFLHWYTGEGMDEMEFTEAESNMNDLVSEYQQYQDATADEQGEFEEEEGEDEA

B1: KIF17M-490 (C-terminally truncated KIF17, amino acids 1-490: motor, neck and first coiled-coil domains) (domain or fragment)
chain: MASEAVKVVVRCRPMNQRERELRCQPVVTVDCARAQCCIQNPGAADEPPKQFTFDGAYHVDHVTEQIYNEIAYPLVEGVTEGYNGTIFAYGQTGSGKSFTMQGLPDPPSQRGIIPRAFEHVFESVQCAENTKFLVRASYLEIYNEDVRDLLGADTKQKLELKEHPEKGVYVKGLSMHTVHSVAQCEHIMETGWKNRSVGYTLMNKDSSRSHSIFTISIEMSAVDERGKDHLRAGKLNLVDLAGSERQSKTGATGERLKEATKINLSLSALGNVISALVDGRCKHVPYRDSKLTRLLQDSLGGNTKTLMVACLSPADNNYDETLSTLRYANRAKNIRNKPRINEDPKDALLREYQEEIKKLKAILTQQMSPSSLSALLSRQVPPDPVQVEEKLLPQPVIQHDVEAEKQLIREEYEERLARLKADYKAEQESRARLEEDITAMRNSYDVRLSTLEENLRKETEAVLQVGVLYKAEVMSRAEFASSAEYPPAF
**Q.** How did the K (0.5, MT) of MT-stimulated ATPase, KIF17M-490 alone turn out when B1 was run?
**A.** Its K (0.5, MT) of MT-stimulated ATPase, KIF17M-490 alone is 1.3 µM.

**Q.** And the K (0.5, MT) of MT-stimulated ATPase, KIF17M-490 with EB1 (2x molar ratio)?
**A.** Its K (0.5, MT) of MT-stimulated ATPase, KIF17M-490 with EB1 (2x molar ratio) is 0.7 µM.

**Q.** What about the K (0.5, MT) of MT-stimulated ATPase, KIF17M-490 with equimolar KIF17-tail of the same binder?
**A.** The K (0.5, MT) of MT-stimulated ATPase, KIF17M-490 with equimolar KIF17-tail was 0.4 µM.
